Measured values published in article PMC3683045, “Induced tRNA Import into Human Mitochondria: Implication of a Host Aminoacyl-tRNA-Synthetase”.

Target: preKARS2 (cytosolic precursor of human mitochondrial lysyl-tRNA synthetase) (human, UniProt Q15046-2 1-625)
Experiment: EMSA; 10 mM Mg2+; EMSA: 20 mM Tris-HCl pH 7.5, 150 mM NaCl, 10 mM MgCl2, 5 mM DTT, 10% glycerol, 0.1 mg/ml BSA, 30 C, 15 min; native 8% PAGE in 0.5x Tris-borate pH 8.3, 5% glycerol
Settings: protein: recombinant; tags: C-terminal 6xHis; chain copies: 2; label: 5'-32P; D-arm and F-hairpin with linker

Sequence of preKARS2 (cytosolic precursor of human mitochondrial lysyl-tRNA synthetase) (Q15046 other isoform, or with tags, fused parts or gaps): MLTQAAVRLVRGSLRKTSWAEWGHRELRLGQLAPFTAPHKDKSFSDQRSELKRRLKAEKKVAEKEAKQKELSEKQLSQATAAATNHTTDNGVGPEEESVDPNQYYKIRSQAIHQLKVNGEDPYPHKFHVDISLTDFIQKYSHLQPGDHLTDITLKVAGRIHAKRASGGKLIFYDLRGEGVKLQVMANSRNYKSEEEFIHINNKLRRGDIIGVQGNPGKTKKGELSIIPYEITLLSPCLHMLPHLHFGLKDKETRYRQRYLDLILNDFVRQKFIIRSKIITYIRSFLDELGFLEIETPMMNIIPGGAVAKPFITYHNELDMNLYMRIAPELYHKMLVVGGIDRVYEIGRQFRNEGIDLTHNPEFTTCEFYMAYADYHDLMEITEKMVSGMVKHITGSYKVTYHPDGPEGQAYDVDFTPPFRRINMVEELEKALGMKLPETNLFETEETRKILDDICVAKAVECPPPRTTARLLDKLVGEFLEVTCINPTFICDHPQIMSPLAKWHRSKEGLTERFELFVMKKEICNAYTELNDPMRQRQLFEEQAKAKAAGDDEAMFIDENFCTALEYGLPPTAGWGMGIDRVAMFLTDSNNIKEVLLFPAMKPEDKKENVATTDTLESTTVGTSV

Binder | Kd
FD-L (structured_RNA) RNA: GCGCAAUCGGUAGCGCCUCUUUACAGUGCUUAGUUCUCGAGCCCCCUACAGGGCUCUU | 400 ± 50 nM
FD-H (structured_RNA) RNA: GCGCAAUCGGUAGCGCAGUAAGCACUGUAAAUGAGCCCCCUACAGGGCUCUU | 400 ± 50 nM
